According to patent US20140179604A1 (U S A REPRESENTED BY THE DEPARTMENT OF VETERANS AFFAIRS, published 2014):
Non-standard residues stand in square brackets, D forms with d. No end group written: not given here. *: point of attachment. Desaminotyrosyl = O=C(CCc1ccc(O)cc1)*; NMeY = CN[C@@H](Cc1ccc(O)cc1)C(=O)O; hArg = N=C(N)NCCCC[C@H](N)C(=O)O; Nle = CCCC[C@H](N)C(=O)O; Orn = NCCC[C@H](N)C(=O)O; Abu = CC[C@H](N)C(=O)O; Aoc = NCCCCCCCC(=O)O; Ava = NCCCCC(=O)O

B1: P-27407 [Dat^1, Gln^8, Orn^12, Abu^15, Orn^21, Nle^27, Asp^28]hGHRH(1-29)NH-CH3 (peptide, from a related filing)
peptide: [Desaminotyrosyl]ADAIFTQSYR[Orn]VL[Abu]QLSAR[Orn]LLQDI[Nle]DR-NHMe
SMILES: CCCC[C@H](NC(=O)[C@@H](NC(=O)[C@H](CC(=O)O)NC(=O)[C@H](CCC(N)=O)NC(=O)[C@H](CC(C)C)NC(=O)[C@H](CC(C)C)NC(=O)[C@H](CCCN)NC(=O)[C@H](CCCNC(=N)N)NC(=O)[C@H](C)NC(=O)[C@H](CO)NC(=O)[C@H](CC(C)C)NC(=O)[C@H](CCC(N)=O)NC(=O)[C@H](CC)NC(=O)[C@H](CC(C)C)NC(=O)[C@@H](NC(=O)[C@H](CCCN)NC(=O)[C@H](CCCNC(=N)N)NC(=O)[C@H](Cc1ccc(O)cc1)NC(=O)[C@H](CO)NC(=O)[C@H](CCC(N)=O)NC(=O)[C@@H](NC(=O)[C@H](Cc1ccccc1)NC(=O)[C@@H](NC(=O)[C@H](C)NC(=O)[C@H](CC(=O)O)NC(=O)[C@H](C)NC(=O)CCc1ccc(O)cc1)[C@@H](C)CC)[C@@H](C)O)C(C)C)[C@@H](C)CC)C(=O)N[C@@H](CC(=O)O)C(=O)N[C@@H](CCCNC(=N)N)C(=O)NC
B2: P-22327 [Dat^1, Gln^8, Orn^12, Abu^15, Orn^21, Nle^27, Asp^28, Apa^30]hGHRH(1-30)NH2 (peptide, from a related filing)
peptide: [Desaminotyrosyl]ADAIFTQSYR[Orn]VL[Abu]QLSAR[Orn]LLQDI[Nle]DR[Ava]-NH2
SMILES: CCCC[C@H](NC(=O)[C@@H](NC(=O)[C@H](CC(=O)O)NC(=O)[C@H](CCC(N)=O)NC(=O)[C@H](CC(C)C)NC(=O)[C@H](CC(C)C)NC(=O)[C@H](CCCN)NC(=O)[C@H](CCCNC(=N)N)NC(=O)[C@H](C)NC(=O)[C@H](CO)NC(=O)[C@H](CC(C)C)NC(=O)[C@H](CCC(N)=O)NC(=O)[C@H](CC)NC(=O)[C@H](CC(C)C)NC(=O)[C@@H](NC(=O)[C@H](CCCN)NC(=O)[C@H](CCCNC(=N)N)NC(=O)[C@H](Cc1ccc(O)cc1)NC(=O)[C@H](CO)NC(=O)[C@H](CCC(N)=O)NC(=O)[C@@H](NC(=O)[C@H](Cc1ccccc1)NC(=O)[C@@H](NC(=O)[C@H](C)NC(=O)[C@H](CC(=O)O)NC(=O)[C@H](C)NC(=O)CCc1ccc(O)cc1)[C@@H](C)CC)[C@@H](C)O)C(C)C)[C@@H](C)CC)C(=O)N[C@@H](CC(=O)O)C(=O)N[C@@H](CCCNC(=N)N)C(=O)NCCCCC(N)=O
B3: P-27406 [N-Me-Tyr^1, Gln^8, Orn^12, Abu^15, Orn^21, Nle^27, Asp^28]hGHRH(1-29)NH-CH3 (peptide, from a related filing)
peptide: [NMeY]ADAIFTQSYR[Orn]VL[Abu]QLSAR[Orn]LLQDI[Nle]DR-NHMe
B4: P-23252 [Dat^1-D-Ala^2, Orn^12, Abu^15, Orn^21, Nle^27, Asp^28, Har^30]hGHRH(1-30)NH2 (peptide)
peptide: [Desaminotyrosyl][dA]DAIFTNSYR[Orn]VL[Abu]QLSAR[Orn]LLQDI[Nle]DR[hArg]-NH2
SMILES: CCCC[C@H](NC(=O)[C@@H](NC(=O)[C@H](CC(=O)O)NC(=O)[C@H](CCC(N)=O)NC(=O)[C@H](CC(C)C)NC(=O)[C@H](CC(C)C)NC(=O)[C@H](CCCN)NC(=O)[C@H](CCCNC(=N)N)NC(=O)[C@H](C)NC(=O)[C@H](CO)NC(=O)[C@H](CC(C)C)NC(=O)[C@H](CCC(N)=O)NC(=O)[C@H](CC)NC(=O)[C@H](CC(C)C)NC(=O)[C@@H](NC(=O)[C@H](CCCN)NC(=O)[C@H](CCCNC(=N)N)NC(=O)[C@H](Cc1ccc(O)cc1)NC(=O)[C@H](CO)NC(=O)[C@H](CC(N)=O)NC(=O)[C@@H](NC(=O)[C@H](Cc1ccccc1)NC(=O)[C@@H](NC(=O)[C@H](C)NC(=O)[C@H](CC(=O)O)NC(=O)[C@@H](C)NC(=O)CCc1ccc(O)cc1)[C@@H](C)CC)[C@@H](C)O)C(C)C)[C@@H](C)CC)C(=O)N[C@@H](CC(=O)O)C(=O)N[C@@H](CCCNC(=N)N)C(=O)N[C@@H](CCCCNC(=N)N)C(N)=O
notes: also called Peptide 23252
B5: P-23254 [Dat^1, D-Ala^2, Thr^8, Orn^12, Abu^15, Orn^21, Nle^27, Asp^28, Har^30]hGHRH(1-30)NH2 (peptide)
peptide: [Desaminotyrosyl][dA]DAIFTTSYR[Orn]VL[Abu]QLSAR[Orn]LLQDI[Nle]DR[hArg]-NH2
SMILES: CCCC[C@H](NC(=O)[C@@H](NC(=O)[C@H](CC(=O)O)NC(=O)[C@H](CCC(N)=O)NC(=O)[C@H](CC(C)C)NC(=O)[C@H](CC(C)C)NC(=O)[C@H](CCCN)NC(=O)[C@H](CCCNC(=N)N)NC(=O)[C@H](C)NC(=O)[C@H](CO)NC(=O)[C@H](CC(C)C)NC(=O)[C@H](CCC(N)=O)NC(=O)[C@H](CC)NC(=O)[C@H](CC(C)C)NC(=O)[C@@H](NC(=O)[C@H](CCCN)NC(=O)[C@H](CCCNC(=N)N)NC(=O)[C@H](Cc1ccc(O)cc1)NC(=O)[C@H](CO)NC(=O)[C@@H](NC(=O)[C@@H](NC(=O)[C@H](Cc1ccccc1)NC(=O)[C@@H](NC(=O)[C@H](C)NC(=O)[C@H](CC(=O)O)NC(=O)[C@@H](C)NC(=O)CCc1ccc(O)cc1)[C@@H](C)CC)[C@@H](C)O)[C@@H](C)O)C(C)C)[C@@H](C)CC)C(=O)N[C@@H](CC(=O)O)C(=O)N[C@@H](CCCNC(=N)N)C(=O)N[C@@H](CCCCNC(=N)N)C(N)=O
notes: also called Peptide 23254
B6: P-21304 [Dat^1, D-Ala^2, Gln^8, Orn^12, Abu^15, Orn^21, Nle^27, Asp^28, Amc^30]hGHRH(1-30)NH2 (peptide)
peptide: [Desaminotyrosyl][dA]DAIFTQSYR[Orn]VL[Abu]QLSAR[Orn]LLQDI[Nle]DR[Aoc]-NH2
SMILES: CCCC[C@H](NC(=O)[C@@H](NC(=O)[C@H](CC(=O)O)NC(=O)[C@H](CCC(N)=O)NC(=O)[C@H](CC(C)C)NC(=O)[C@H](CC(C)C)NC(=O)[C@H](CCCN)NC(=O)[C@H](CCCNC(=N)N)NC(=O)[C@H](C)NC(=O)[C@H](CO)NC(=O)[C@H](CC(C)C)NC(=O)[C@H](CCC(N)=O)NC(=O)[C@H](CC)NC(=O)[C@H](CC(C)C)NC(=O)[C@@H](NC(=O)[C@H](CCCN)NC(=O)[C@H](CCCNC(=N)N)NC(=O)[C@H](Cc1ccc(O)cc1)NC(=O)[C@H](CO)NC(=O)[C@H](CCC(N)=O)NC(=O)[C@@H](NC(=O)[C@H](Cc1ccccc1)NC(=O)[C@@H](NC(=O)[C@H](C)NC(=O)[C@H](CC(=O)O)NC(=O)[C@@H](C)NC(=O)CCc1ccc(O)cc1)[C@@H](C)CC)[C@@H](C)O)C(C)C)[C@@H](C)CC)C(=O)N[C@@H](CC(=O)O)C(=O)N[C@@H](CCCNC(=N)N)C(=O)NCCCCCCCC(N)=O
notes: also called Peptide 21304

Tests used:
[1] = target: T1, GHRH receptor (membrane receptors of human anterior pituitary cells) (human) (UniProt Q02643); assay: competition with 125I-JV-1-42, human pituitary membranes
T1 sequence (looked up): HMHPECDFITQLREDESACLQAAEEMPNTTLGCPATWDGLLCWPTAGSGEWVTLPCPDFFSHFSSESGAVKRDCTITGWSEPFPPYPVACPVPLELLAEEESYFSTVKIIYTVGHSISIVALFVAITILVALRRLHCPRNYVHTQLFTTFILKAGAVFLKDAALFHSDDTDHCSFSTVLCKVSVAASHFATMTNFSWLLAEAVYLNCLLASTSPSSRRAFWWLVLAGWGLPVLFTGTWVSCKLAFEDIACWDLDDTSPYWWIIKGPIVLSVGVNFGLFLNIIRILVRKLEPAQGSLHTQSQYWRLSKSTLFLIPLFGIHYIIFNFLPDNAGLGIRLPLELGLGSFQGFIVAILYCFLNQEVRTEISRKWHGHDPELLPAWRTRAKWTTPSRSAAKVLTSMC

[2] = target: T1, GHRH receptor (membrane receptors of human anterior pituitary cells) (human); assay: competition with 125I-[His1,Nle27]hGHRH(1-32)NH2, human pituitary membranes
[3] = target: T2, GHRH receptor (membrane receptors of human anterior pituitary cells) (human, UniProt Q02643 23-423); assay: competition with [His1,125I-Tyr10,Nle27]hGHRH(1-32)NH2, human pituitary membranes
T2 construct: whole, on cells; Native receptor in a membrane fraction of purchased normal human pituitaries, not intact cells; also called hGHRH receptor; human pituitary membrane homogenates
T2 sequence (looked up): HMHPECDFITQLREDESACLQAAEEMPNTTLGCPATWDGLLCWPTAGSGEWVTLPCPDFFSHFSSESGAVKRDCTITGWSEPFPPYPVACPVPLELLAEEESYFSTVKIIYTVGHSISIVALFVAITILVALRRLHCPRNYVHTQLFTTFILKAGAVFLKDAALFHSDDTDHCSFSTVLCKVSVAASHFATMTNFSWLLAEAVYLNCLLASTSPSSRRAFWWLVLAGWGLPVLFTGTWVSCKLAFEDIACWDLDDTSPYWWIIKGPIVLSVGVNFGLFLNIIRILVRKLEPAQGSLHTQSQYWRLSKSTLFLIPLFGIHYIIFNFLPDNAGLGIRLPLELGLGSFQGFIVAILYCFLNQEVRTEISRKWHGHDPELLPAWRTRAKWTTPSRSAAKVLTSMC
Source text: Normal human pituitaries were purchased from the National Hormone and Peptide Program (A. F. Parlow, Los Angeles, County Harbor—UCLA Medical Center, Torrance, Calif.).

Row | Binder | IC50 [1] [nM] | Relative affinity (Binding potency) vs JI-38 [1] [JI-38 = 1] | IC50 [2] [nM] | Relative affinity (Binding potency) compared to JI-38 [2] [JI-38 = 1] | Relative affinity (Binding potency) compared to hGHRH(1-29) (hGHRH(1-29)NH2 = 1) [2] | IC50 [3] [nM] | Relative affinity (Binding potency) vs GHRH [3] | Relative affinity (Binding potency) vs JI-38 [3] [JI-38 = 1]
1 | B1 | 3 | 1.45 | 5.01 | 0.54 | 1.52 | – | – | –
2 | B2 | 1.99 | 2.18 | 2.04 | 1.34 | 3.75 | – | – | –
3 | B3 | 0.3 | 14.5 | 0.93 | 2.95 | 8.22 | – | – | –
4 | B4 | – | – | – | – | – | 0.14 | 42.3 GHRH(1-29) = 1 | 13.9
5 | B5 | – | – | – | – | – | 0.07 | 84.5 GHRH(1-29) = 1 | 27.8
6 | B6 | – | – | – | – | – | 0.08 | 74 GHRH(1-29) = 1 | 24.4
